The subject of one data set is RSV F antibody (11A9). As to the kind of experiment: Binding of epitope II of RSV F antigen mutants by flow cytometry. The conditions noted are these: epitope II, antibody 11A9. Summed up:
(§1)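 293T cells were transfected with mRNA-LNP (300 ng mRNA) encoding the RSV F mutants and harvested after 16 h. Cells were stained with fluorescent 3C12 (pre-F-specific epitope Φ) or 11A9 (epitope II, pre-F and post-F) for 2 h at 4 °C in the dark, then washed and read by flow cytometry on 1×10^4 cells per measurement.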
(Flow cytometry measures light scatter and fluorescence of single cells or particles in a stream.)

In data set [1] the test system is RSV pre-F antibody (3C12). The data set is classed as physicochemical. The following applies: ELISA binding to 3C12; for Stress resistance parameter, Osmotic pressure (mM) 3000: high osmotic pressure 3000 mM; for Stress resistance parameter, Osmotic pressure (mM) 3000 / Stress resistance parameter, Osmotic pressure (mM) 10: room temperature; for Stress resistance parameter, Osmotic pressure (mM) 3000 / Stress resistance parameter, Osmotic pressure (mM) 10 / Stress resistance parameter, pH 3.5 / Stress resistance parameter, pH 10: 60 min; for Stress resistance parameter, Temperature (° C.) 50: incubation at 50° C. for 60 min; for Stress resistance parameter, Osmotic pressure (mM) 10: low osmotic pressure 10 mM; for Stress resistance parameter, pH 3.5: pH 3.5, room temperature; for Stress resistance parameter, pH 10: pH 10, room temperature; for Stress resistance parameter, Temperature (° C.) 4: storage at 4° C. for one week. The source says: To investigate the stability of the RSV F antigen mutants under different pH, temperature, osmotic pressure and other conditions, the mutants were subjected to stress tests under different treatment conditions in this example.
• 293T cells (purchased from ATCC cell bank); • Primary antibody: RSV pre-F antibody (3C12), epitope Φ (purchased from Suzhou Novoprotein Scientific Co., Ltd. (hereinafter referred to as Novoprotein), Cat. No.: DA101); • Standard: RSV pre-F trimer protein (Novoprotein, Cat. No.: DRA230); • Secondary antibody: peroxidase AffiniPure goat anti-human IgG (H+L) (purchased from Yeasen Biotechnology (Shanghai) Co., Ltd. (hereinafter referred to as Yeasen), Cat. No.: N/A); • Experimental group: mRNA vaccines after screening in Example 4;
Coating: A 96-well microplate was coated with a working solution and incubated at 2 to 8° C. for 16 to 20 h.
Plate washing: Phosphate buffered saline PBST was added to each well, and the plate was washed 5 times using a plate washer and patted dry on absorbent paper.
Blocking: After a blocking solution was added, the […] were placed on a constant temperature microplate shaker and incubated at 400 rpm for 1.5 h at 37° C.
Plate washing: PBST was added to each well, and the plate was washed 5 times using a plate washer and patted dry on absorbent paper.
Primary antibody incubation: A primary antibody dilution was added to each well, and the plate was sealed with a sealing film, and then incubated at 400 rpm for 1.5 h at 37° C.
Secondary antibody incubation: A secondary antibody dilution was added to each well, and the plate was sealed with a sealing film, and then incubated at 400 rpm for 45 min at 37° C.
Color development: A chromogenic solution was added, and the plate was sealed with a sealing film, and then placed on a constant temperature microplate shaker and incubated at 400 rpm for 25 min at 37° C.
Reaction stopping: After the color development was completed, a stop buffer was added at […] to the microplate to stop the reaction.
Plate reading: Absorbance values (OD values) were read within 5 min using a multimode microplate reader, with dual wavelengths of 450 nm and 630 nm set.
In this example, stability screening of the mutants through different treatment conditions was defined as a stress test, including storage at 4° C. for one week; incubation at 50° C. for 60 min; treatment at room temperature under low osmotic pressure and high osmotic pressure conditions for 60 min; treatment at room temperature under acid and base conditions for 60 min. The binding of the mutants to the RSV pre-F antibody (3C12) recognizing the epitope Φ was detected by ELISA.

Data set [2] relates to RSV pre-F antibody (3C12). As to the kind of experiment: Binding of epitope Φ of RSV F antigen mutants by flow cytometry. The conditions noted are these: for RSV pre-F antibody (3C12) Epitope Φ (%) binding rate: flow cytometry; for Φ/II (%): ratio of epitope Φ (3C12) to epitope II (11A9) binding rate. In short, it runs like this: as §1

B1: YK-RSV-016 (protein)
chain: QNITEEFYCSTCSAVSKGYLGALRTGWYTSVILIELSNIKENKCNGTDAKVKLIKQELDKYKNAVTDLQLLMQSTPATGSGSAICSGVAVSKVLHLEGEVNKIKSALLSTNKAVVSLSNGVSVLTFKVLDLKNYIDKQLLPIVNKQSCSIPNIETVIEFQQKNNRLLEITREFSVNAGVTTPVSTYMLTNSELLSLINDMPITNDQKKLMSNNVQIVRQQSYSIMSIIKEEVLAYVVQLPLYGVIDTPCWKLHTSPLCTTNTKEGSNICLTRTDRGWYCDNAGSVSFFPQAETCKVQSNRVFCDTMNSRTLPSEVNLCNVDIFNPKYDCKIMTSKTDVSSSVITSLGAIVSCYGKTKCTASNKNRGIIKTFSNGCDYVSNKGVDTVSVGNTLYCVNKQEGQSLYVKCEPIINFYDPLVFPSSEFDASISQVNEKINQSLAFIRKSDELLHNVNAGKSTTNIMITTIIIVIIVILLSLIAVGLLLY
For B1, the “RSV F antibody (11A9) Epitope II (%) binding rate” value (from here on “RSV F antibody … (%) binding rate”) in the data set on RSV F antibody (11A9) turned out to be 83.4%. Besides, in data set [1], the “Stress resistance parameter, Osmotic pressure (mM) 3000” value is recorded as 0.53 ± 0.07; the “Stress resistance parameter, Temperature (° C.) 50” value is given as 0.80 ± 0.01; the “Stress resistance parameter, Osmotic pressure (mM) 10” value (“Stress resistance parameter … (mM) 10” below) was determined as 0.77 ± 0.08; the “Stress resistance parameter, pH 3.5” value was 0.91 ± 0.06. Also, in data set [1], the “Stress resistance parameter, pH 10” value amounted to 0.98 ± 0.14 and the “Stress resistance parameter, Temperature (° C.) 4” value was found to be 0.28 ± 0.05. In data set [2], the “RSV pre-F antibody (3C12) Epitope Φ (%) binding rate” value is 79.8% and the “Φ/II (%)” value was determined as 95.7%.

B2: YK-RSV-034 (protein)
chain: CNITEEFYQSTCSAVSKGYLGALRTGWYTSVITIELSNIKENKCNGTDAKVKLIKQELDKYKNAVTDLQLLMQSTPATGSGSAIASGVAVSKVLHLEGEVNKIKSALLSTNKAVVSLSNGVSVLTFKVLDLKNYIDKQLLPILNKQSCSIPNIETVIEFQQKNNRLLEITREFSVNAGVTTPVSTYMLTNSELLSLINDMPITNDQKKLMSNNVQIVRQQSYSIMSIIKEEVLAYVVQLPLYGVIDTPCWKLHTSPLCTTNTKEGSNICLTRTDRGWYCDNAGSVSFFPQAETCKVQSNRVFCDTMNSRTLPSEVNLCNVDIFNPKYDCKIMTSKTDVSSSVITSLGAIVSCYGKTKCTASNKNRGIIKTFSNGCDYVSNKGVDTVSVGNTLYYVNCQEGQSLYVKGEPIINFYDPLVFPSDEFDASISQVNEKINQSLAFIRKSDELLHNVNAGKSTTNIMITTIIIVIIVILLSLIAVGLLLY
Take B2: the “RSV F antibody … (%) binding rate” value with RSV F antibody (11A9) amounted to 91.0%. For the same molecule, in data set [1], the “Stress resistance parameter, Osmotic pressure (mM) 3000” value stood at 0.34 ± 0.15; the “Stress resistance parameter, Temperature (° C.) 50” value is listed as 0.68 ± 0.07; the “Stress resistance parameter … (mM) 10” value is reported as 0.84 ± 0.14; the “Stress resistance parameter, pH 3.5” value is recorded as 0.81 ± 0.09. In addition, in data set [1], the “Stress resistance parameter, pH 10” value turned out to be 0.91 ± 0.04 and the “Stress resistance parameter, Temperature (° C.) 4” value is recorded as 0.37 ± 0.07. Besides, in data set [2], the “RSV pre-F antibody (3C12) Epitope Φ (%) binding rate” value turned out to be 82.5% and the “Φ/II (%)” value is on record as 90.7%.

B3: YK-RSV-019 (protein)
chain: QNITEEFYQSTCSAVSKGYLGALRTGWYTCVITIELSNIKENKCNGTDAKVKLIKQELDKYKNAVTDLQLLMQSTPATGSGSAICSGVAVSKVLHLEGEVNKIKSALLSTNKAVVSLSNGVSVCTFKVLDLKNYIDKQLLPIVNKQSCSIPNIEIVIEFQQKNNRLLEITREFSVNAGVTTPVSTYMLTNSELLSLINDMPITNDQKKLMSNNVQIVRQQSYSIMSIIKEEVLAYVVQLPLYGVIDTPCWKLHTSPLCTTNTKEGSNICLTRTDRGWYCDNAGSVSFFPQAETCKVQSNRVFCDTMNSRTLPSEVNLCNVDIFNPKYDCKIMTSKTDVSSSVITSLGAIVSCYGKTKCTASNKNRGIIKTFSNGCDYVSNKGVDTVSVGNTLYCVNKQEGQSLYVKGEPIINFYDPLVFPSSEFDASISQVNEKINQSLAFIRKSDELLHNVNAGKSTTNIMITTIIIVIIVILLSLIAVGLLLY
Take B3: in the data set with RSV F antibody (11A9), the “RSV F antibody … (%) binding rate” value worked out at 90.4%. In data set [1], the “Stress resistance parameter, Osmotic pressure (mM) 3000” value is 0.63 ± 0.04; the “Stress resistance parameter, Temperature (° C.) 50” value came to 0.58 ± 0.05; the “Stress resistance parameter … (mM) 10” value was 0.81 ± 0.04; the “Stress resistance parameter, pH 3.5” value worked out at 0.77 ± 0.05. Besides, in data set [1], the “Stress resistance parameter, pH 10” value is listed as 0.88 ± 0.09 and the “Stress resistance parameter, Temperature (° C.) 4” value was 0.37 ± 0.08. Also, in data set [2], the “RSV pre-F antibody (3C12) Epitope Φ (%) binding rate” value was found to be 84.5% and the “Φ/II (%)” value is listed as 93.5%.

B4: YK-RSV-032 (protein)
chain: QNITEEFYCSTCSAVSKGYLGALRTGWYTSVITIELSNIKENKCNGTDAKVKLIKQELDKYKNAVTDLQLLMQSTPATGSGSAIASGVAVSKVLHLEGEVNKIKSALLSTNKAVVSLSNGVSVLTFKVLDLKNYIDKQLLPILNKQSCSIPNIETVIEFQQKNNRLLEITREFSVNAGVTTPVSTYMLTNSELLSLINDMPITNDQKKLMSNNVQIVRQQSYSIMSIIKEEVLAYVVQLPLYGVIDTPCWKLHTSPLCTTNTKEGSNICLTRTDRGWYCDNAGSVSFFPQAETCKVQSNRVFCDTMNSRTLPSEVNLCNVDIFNPKYDCKIMTSKTDVSSSVITSLGAIVSCYGKTKCTASNKNRGIIKTFSNGCDYVSNKGVDTVSVGNTLYYVNKQEGQSLYVCGEPIINFYDPLVFPSDEFDASISQVNEKINQSLAFIRKSDELLHNVNAGKSTTNIMITTIIIVIIVILLSLIAVGLLLY
Turning to B4, the “RSV F antibody … (%) binding rate” value with RSV F antibody (11A9) is 94.8%. For the same molecule, in data set [1], the “Stress resistance parameter, Osmotic pressure (mM) 3000” value was 0.37 ± 0.02; the “Stress resistance parameter, Temperature (° C.) 50” value is reported as 0.78 ± 0.02; the “Stress resistance parameter … (mM) 10” value is reported as 0.66 ± 0.14; the “Stress resistance parameter, pH 3.5” value is 1.01 ± 0.35. In data set [1], the “Stress resistance parameter, pH 10” value amounted to 0.98 ± 0.06 and the “Stress resistance parameter, Temperature (° C.) 4” value was found to be 0.34 ± 0.08. Besides, in data set [2], the “RSV pre-F antibody (3C12) Epitope Φ (%) binding rate” value is given as 86.1% and the “Φ/II (%)” value was determined as 90.8%.

B5: YK-RSV-029 (protein)
chain: QNICEEFYQSTCSAVSKGYLGALRTGWYTSVITIELSNIKENKCNGTDAKVKLIKQELDKYKNAVTDLQLLMQSTPATGSGSAIASGVAVSKVLHLEGEVNKIKSALLSTNKAVVSLSNGVSVLTFKVLDLKNYIDKQLLPILNKQSCSIPNIETVIEFQQKNNRLLEITREFSVNAGVTTPVSTYMLTNSELLSLINDMPITNDQKKLMSNNVQIVRQQSYSIMSIIKEEVLAYVVQLPLYGVIDTPCWKLHTSPLCTTNTKEGSNICLTRTDRGWYCDNAGSVSFFPQAETCKVQSNRVFCDTMNSRTLPSEVNLCNVDIFNPKYDCKIMTSKTDVSSSVITSLGAIVSCYGKTKCTASNKNRGIIKTFSNGCDYVSNKGVDTVSVGNTLYYVNKQEGCSLYVKGEPIINFYDPLVFPSDEFDASISQVNEKINQSLAFIRKSDELLHNVNAGKSTTNIMITTIIIVIIVILLSLIAVGLLLY
As to B5, in the data set with RSV F antibody (11A9), the “RSV F antibody … (%) binding rate” value worked out at 86.7%. In addition, in data set [1], the “Stress resistance parameter, Osmotic pressure (mM) 3000” value is listed as 0.40 ± 0.01; the “Stress resistance parameter, Temperature (° C.) 50” value worked out at 0.57 ± 0.08; the “Stress resistance parameter … (mM) 10” value is 0.61 ± 0.05; the “Stress resistance parameter, pH 3.5” value came to 0.63 ± 0.03. Further, in data set [1], the “Stress resistance parameter, pH 10” value came out at 0.82 ± 0.01 and the “Stress resistance parameter, Temperature (° C.) 4” value is reported as 0.32 ± 0.06. Moreover, in data set [2], the “RSV pre-F antibody (3C12) Epitope Φ (%) binding rate” value was 79.6% and the “Φ/II (%)” value stood at 91.8%.

Source of the values: US12514920B1, “Respiratory syncytial virus mRNA vaccine, and preparation method therefor and use thereof” (Hangzhou Tianlong Pharmaceutical Co., Ltd., priority 2024, dated 2026).
